Laboratory results as given in patent US12692524B2, “Sialyltransferases and their use in producing sialylated oligosaccharides” (Chr. Hansen A/S, priority 2017, dated 2026).

B1: SiaT9: sialyltransferase of Vibrio sp. JT-FAJ-16, acc. BAF91160, SEQ ID NO: 2 (protein, listed as Vibrio sp.)
chain: MNNDNSTTTNNNAIEIYVDRATLPTIQQMTKIVSQKTSNKKLISWSRYPITDKSLLKKINAEFFKEQFELTESLKNIILSENIDNLIIHGNTLWSIDVVDIIKEVNLLGKNIPIELHFYDDGSAEYVRIYEFSKLPESEQKYKTSLSKNNIKFSIDGTDSFKNTIENIYGFSQLYPTTYHMLRADIFDTTLKINPLRELLSNNIKQMKWDYFKDFNYKQKDIFYSLTNFNPKEIQEDFNKNSNKNFIFIGSNSATATAEEQINIISEAKKENSSIITNSISDYDLFFKGHPSATFNEQIINAHDMIEINNKIPFEALIMTGILPDAVGGMGSSVFFSIPKEVKNKFVFYKSGTDIENNSLIQVMLKLNLINRDNIKLISDI
B2: SiaT19: sialyltransferase of Photobacterium leiognathi JT-SHIZ-145, acc. BAF91416, SEQ ID NO: 30 (protein, listed as Photobacterium leiognathi)
chain: MNDNQNTVDVVVSTVNDNVIENNTYQVKPIDTPTTFDSYSWIQTCGTPILKDDEKYSLSFDFVAPELDQDEKFCFEFTGDVDGKRYVTQTNLTVVAPTLEVYVDHASLPSLQQLMKIIQQKNEYSQNERFISWGRIRLTEDNAEKLNAHIYPLAGNNTSQELVDAVIDYADSKNRLNLELNTNTGHSFRNIAPILRATSSKNNILISNINLYDDGSAEYVSLYNWKDTDNKSQKLSDSFLVLKDYLNGISSEKPNGIYSIYNWHQLYHSSYYFLRKDYLTVETKLHDLREYLGGSLKQMSWDTFSQLSKGDKELFLNIVGFDQEKLQQEYQQSELPNFVFTGTTTWAGGETKEYYAQQQVNVVNNAINETSPYYLGREHDLFFKGHPRGGIINDIILGSFNNMIDIPAKVSFEVLMMTGMLPDTVGGIASSLYFSIPAEKVSFIVFTSSDTITDREDALKSPLVQVMMTLGIVKEKDVLFWC

Test: In vitro sialylation of LNT by protein extracts, LST-a/-b quantified by LC-MS/MS
Type: biochemical
Conditions: for Ranking in the screening for sialylation of LNT: in words
Outline: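 E. coli BL21(DE3) crude extracts overexpressing sialyltransferases (IPTG 0.3 mM, 12–16 h at 30 °C) incubated 16 h with 5 mM LNT and 10 mM CMP-Neu5Ac in 50 mM Tris-HCl pH 7.5, 5 mM MgCl2. LST-a and LST-b measured by HILIC LC-MS/MS, MRM in ESI negative mode, against commercial standards.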

[1] = 5 mM LNT, 10 mM CMP-Neu5Ac, 16 hours, LC-MS/MS, relative quantity, n.d.: not detectable

Row | Molecule | Relative efficacy of sialyltransferases regarding in-vitro production of sialyllacto-N-tetraoses: LST-a [1] | Ranking in the screening for sialylation of LNT | Relative efficacy of sialyltransferases regarding in-vitro production of sialyllacto-N-tetraoses: LST-b [1]
1 | B1 | 8.39 × 10^3 | best performing α-2,3-sialyltransferases for LST-a production | 
2 | B2 |  | sialylate LNT most efficiently among the tested α-2,6-sialyltransferases | 157
